In this experiment the target is T1, Human fibrinogen (Sigma), biotinylated (human, UniProt P02671 20-629; P02675 31-491; P02679 27-437).
T1 construct: also called biotinylated fibrinogen
T1 sequence 1: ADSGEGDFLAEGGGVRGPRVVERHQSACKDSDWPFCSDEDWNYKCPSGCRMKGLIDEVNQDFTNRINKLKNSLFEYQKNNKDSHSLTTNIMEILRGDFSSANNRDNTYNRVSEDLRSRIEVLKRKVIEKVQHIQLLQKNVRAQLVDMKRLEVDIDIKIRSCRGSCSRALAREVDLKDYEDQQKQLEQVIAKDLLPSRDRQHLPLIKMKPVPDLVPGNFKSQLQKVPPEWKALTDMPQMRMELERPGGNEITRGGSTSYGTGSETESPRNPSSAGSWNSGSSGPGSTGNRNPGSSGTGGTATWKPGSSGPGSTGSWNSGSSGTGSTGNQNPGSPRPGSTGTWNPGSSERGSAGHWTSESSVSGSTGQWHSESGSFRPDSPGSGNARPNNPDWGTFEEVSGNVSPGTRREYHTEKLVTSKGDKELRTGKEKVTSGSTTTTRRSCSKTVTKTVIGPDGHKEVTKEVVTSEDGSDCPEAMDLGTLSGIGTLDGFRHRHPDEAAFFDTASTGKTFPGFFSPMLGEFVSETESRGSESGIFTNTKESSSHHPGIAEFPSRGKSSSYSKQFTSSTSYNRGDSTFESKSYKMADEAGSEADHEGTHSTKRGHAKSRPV
T1 sequence 2: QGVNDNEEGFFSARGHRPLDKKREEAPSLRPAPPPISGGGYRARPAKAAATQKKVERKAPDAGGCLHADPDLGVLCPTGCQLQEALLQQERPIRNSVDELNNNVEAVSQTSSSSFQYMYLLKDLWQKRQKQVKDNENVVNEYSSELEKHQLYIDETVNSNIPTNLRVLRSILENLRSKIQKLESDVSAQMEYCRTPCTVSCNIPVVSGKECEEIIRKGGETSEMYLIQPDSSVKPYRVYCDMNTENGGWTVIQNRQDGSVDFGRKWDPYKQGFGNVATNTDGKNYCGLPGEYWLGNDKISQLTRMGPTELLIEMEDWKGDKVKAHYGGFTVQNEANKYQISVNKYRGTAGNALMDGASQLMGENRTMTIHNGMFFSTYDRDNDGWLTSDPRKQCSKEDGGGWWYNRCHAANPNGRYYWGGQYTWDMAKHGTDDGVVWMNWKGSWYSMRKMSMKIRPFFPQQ
T1 sequence 3: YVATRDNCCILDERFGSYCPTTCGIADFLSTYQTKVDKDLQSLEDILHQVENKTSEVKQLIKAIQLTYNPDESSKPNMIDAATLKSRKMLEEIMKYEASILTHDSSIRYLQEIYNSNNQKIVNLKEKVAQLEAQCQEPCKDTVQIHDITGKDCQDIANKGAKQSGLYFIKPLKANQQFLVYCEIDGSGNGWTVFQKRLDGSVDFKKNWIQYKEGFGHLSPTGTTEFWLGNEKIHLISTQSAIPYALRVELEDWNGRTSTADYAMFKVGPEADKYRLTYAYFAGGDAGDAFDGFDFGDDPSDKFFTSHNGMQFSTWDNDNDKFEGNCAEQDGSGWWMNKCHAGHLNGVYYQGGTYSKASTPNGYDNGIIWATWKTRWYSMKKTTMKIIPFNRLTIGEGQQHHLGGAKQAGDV
Nature of the experiment: fibrinogen binding of expressed peptides (data not shown).

One molecule from patent publication US20100215684A1 (UNIVERSITY OF QUEENSLAND, published 2010) can be followed below.

B1: S. iniae strain QMA136 M protein C-terminal amino acid sequence (309 amino acid peptide expressed from isolate QMA0136) (other)
chain: MAEIQEEANKKIAAVQTELENIDSENQSLSTANEQLKADLEQAARELDTLQSSYYTVENEKAELQKQLAEKDAKIAELEANNTELTATVADLTKALEAAKKEAEEKPALKAKVAELEKALAEAKGLGTKVAELEKDLEKAQAEAKDLETKLAETKAELEKVQAEKAELEATIEKMKKEHAEELDKLNALLADKEKLVEALNKEIEALKKDFDEKSNHSAQEKAKFQEELERLKKELAAKINMPMGNTKGMANAAGNAQTPANNGQNNAVKNQLPSTGDKAGNPFFTASAIAVMVGAGTLAYGRKRKEEE
notes: The expression construct is not described; also called QMA136 C-terminal fragment
As to B1, the binding result is given as “no binding”.
